# Assay: label from the status in PepcDB records
row,Sequence,protein production
1,MLLTLALVILFATIMVFFSQEFIRTFKKILAIRGAKLLIPLGIASWLIYNFDYLFIWVIYYIREVLQAVLAFLTRIMPFKPYSTSIALIILLTTVSVGPVLLLDLIYRKRTYKGYAYPYLTSTLILIFCTLILLVVS,failed
2,MRFKQNADHIVLTHVFNGGSAESAALCPQDKIIALDGYACTDFAAQWARYHVRAKINIHFFRAGILRQTVLTVQATALEHHHHHH,failed
3,MKGDRTLSCMIKTDRGEICIDPAEPILHIIGKKYAIFIVSVLGNDNTRKNFNDLMRAVPGISSTMLSARLHEMNECGLIERHEGDIVTYELTERGREIRKRMLPLIEYLADAD,failed
4,MNLAYETQSIAERREQLREEGKIELPLNVDTRKYLLSFIRYRDVLISLPLLIAGIVALYIIHRTGIGINSQNVIVCFAPWATFLLLLTIQHPDRKNISFFEHRIVWRIKYNNRQKLFVYTKGDLMGNKKEKDVREQLGISNIYSDCYETTDKRLVKVIKVSSINLSLLNNKEKRMIFQAYETFLNDLPKNLTLQISQIAQPVNLKNYFLFIQEKTSREQDMAKKLLAKGYLDFIDDIQKSKNMVSRNRYVIISKPFTAQNRESVLEELDRQAKILVSQIENMLGGRFQLKAEILNNEELFHLIYTCVDYENAQVNAEIKTSTFPITLGKETYIEMKKRWEKEVTEKII,failed
5,MFLGAAMAQVSLCMIVRDEAELLPRCLASVKDQVDELIVLDTGSRDRTPAIATEAGAKLLHTDWADDFSAARNQAIAAATGDWILVLDADEELILEAWTELRSQLDQPEALAFTVLREETQAGQVPYSRLSRLFRNRPDIRFQRPYHELVDDSLLALQQQEPNWRITAWPTPVIRHYGYGRDRLQQRGTAERMRQSLETWLADHPEDAYLCSKLGGLLVQEGDLKAAQRWLKQGLKQGRPEPAVRYELLYHLALLERRQGDLDAAIDRYQAALQEPVDAIHKLGAWVNLSHLYRDRGQLGLAYDAARQAVAAAPQATVALTALGLAARAIGNYPEAIAAYQQALQLDPNDPSLYQNLGAVLFQVGQLEASYAAFRQAIAGYEQQGSPEAQRLELRLQAMGIRL,failed
6,MIMIDLSLIWIVIIAVGVFIYIVLDGFDLGIGILFPFIKDQHERDVMMNTVAPVWDGNETWMVLGGAGLFAAFPMVYSAVLSALYLPIILMVIALIFRGVAFEFRFKANRTKHLWDAAFIGGSIISSFLQGVILGAYIQGIHIVDGRYAGGGLDWLTPFSLFTGVGVVVVYAALGCGWLIMKTDHRLQLNMYSLMPKLMYALLIIFVCVSIYTPLSQPQIAARWFTQPQLTYFSPVPILVVIFTFLTVRACSKRQESMPFLYTLALVFLAYTGFLISIFPYIIPPSVTIWDAAAPANSQLFALIGALILIPIIIMYTIMAYWVFRDKVRVGDEGYH,failed
7,MSVRPVDAALEGLQTMRRRPLTALAWATFSLVMLPILGLLVKIGLGDEGRQVLAGRGSSADPRELLDLVMNLGGAMVLLVALALLLGAVLQAAIIRSVLEPTNDRFAYLRLGKEEIQLLIVSLITWATALLCTIIPSGVVVLGSSLLSGAAAAWFAFLGALSVIGFSLWVAVRLSLLGPHAFSHHHIDIRAAWIQTHGQFWRLLGMFVLTIAIWILVSLLGAAVAGVIGKWLTAAVNLGASGLAASNSWLILSLLANMLLAPVFLTLQTVILVAAPARAFAQLNQDEIDAGLHA,failed
8,MSYMGKKKKDCLFHVDGFEEWMDQFCSDSCSNFSFPNQIHIDLCETEQEYILETDVPNVTEQNVVIKKMETGLNICILHKNISLQRNIPLPTTIIYKKMLACLENGFLAIHISKNEVANKHEEKVLFQIEN,failed
9,MKGENAMEHHTSVLSLMVVVAIAFFVPLLLQRFKLKALPVVVAEIIAGIFVGKSGFNIIEPDIWLQVLSTLGFIFLMFLSGLEIDFSIFKQKGKKNTTNEPNTFQAASIIFLFIFILSYALSLLFVWLGFVDNAMFMTLIISTISLGVVVPTLKENNLGKTAIGQIILLVAVIADLVTMILLAVFVGLNSESGQSMWLLLLLFGAGIVIYFVAKRFKNIPYLDSLKAGSVQIDTRAVFALILILVGLSESVGAENILGAFLAGVLVSLLSPNEDMVEKLDSIGYGFFIPIFFVMVGVNLEVWSIFKEPSSMLMIPILIVGLFISKLLPSLVLRKWYPRNIVLGSAILLTSTLSLVIAAAQIGEKLEIISPSLSVSLILSAVITCIFAPILFKKMFPKVETPKPKVAIIGASRITLPLSLDLKREDYDVTLYMMRQNKINDEEATSHDFPIVKLDDITIASLTEQTAFDADRVVVATSDDEQNLLLAEHAKELGVEHVIASVEDPLLQEKATQEHIAVFSTINSTRILLRALIDKPSLVRLITTANETVREVELRSNKYNGVALRRLPFLGDVLVIQIYRGNKALIPHGDTRLQHGDTLLVTGSKEHIDTLKNILE,failed
10,MTLNIYTEEWAPISFSVDGKPDGLAVQVVQEIQKRIDNQDPIKVVPWARGWKIITEQPNTVLFTMTRTAERERMFSLIGPVAVGTTNFYALKNSNLEHHHHHH,failed
11,MTTLQLFESVNAFVWGPPLLALLVGTGIYLTIRLGLLQVVRLPLALRYVFGRDDEHHEEGDVSSFAALCTALAATIGTGNIVGVATAVAAGGPGALFWMWVAAFFGMATKYAEGLLAVKYRVTDANGQMSGGPMYYLERGLGSRMLARAFALCGILVAFFGIGTFAQVNAIKDAASLSLGIPPLATAVVLTTTVALVTLGGLRSIARVAEKVVPFMAVFYIIASCAVLVMHLDRIPDAVMVILHSAFNPQAALGGAAGMTVLTAMRAGVARGVFSNESGLGSAPIAAAAARTKSCVRQGLISMTGTFFDTIVICTMTGLVLVVTGVWNDPQLAGAAMTNAAFAAGLESSLGQYAATLGLILFAFTTILGWNYYGERCTEYLFGVRGILPYRLVFIGLVAAGAFVHLELIWVLADIVNGLMAIPNLIGLLGLSGVIIAETRAFFEADAPSVDAPCGSDADNASGACPRA,failed
12,MFMIPAWLWIGLIAFALAFVCNRLSPRDLRWFNRLRRPSWLTFEWAIPFIWIAIFIAGAISATLAWNATADPGHRWGLMVGYLLLELTVMAYTPVMCKLRSLRVGSIIGATGFFVGLALVIAVSQVSTTAFGFLVPFLLWSPIGTYVTWAMIPLNPGEI,failed
13,QALDVLDDAGRKVLFTEARTANTFAEVAVADDELAMIWELARWSPSAANGQPLRVLFVRTPEGKERLGRHLDEGNRAKTLSAPAVAILAYDVDFHEQMPTVFPARGEMLRAAFADQTEKRESLAAYNSALQTGVFLLAVRAAGLAAGPMAGFDRAGVDEEFFAGTSWRSHLVVNIGHPGADPWFPRLPRVPVEDAVAYA,failed
14,DDFVSLGTSGWHARVVSTVSDPSEVRQFALPDGGILRIASVLSVGGTADWARSVLLPGVSAKEADALMLQRPRLATGLLSLPSIQGESFPVRSHSVGGCILGMRGNQDPLTLYTAVIEGICMTLAHDIKPGGILPATGGGARSVPWMRILASVTNRNIHVTVSEDAALHGAASLAAYATSAEYLPTLAARAIVEIEPEPEVVASFEPLIAKHLELFRFAAALSY,failed
15,MPGQSRFPLPLIAAFFALYVIWGSTYLVIRIGVEYWPPLMLGGIRFIIAGSLMYAFLRWRGVPAPTWAQWKAAGIIGVLLLSCGNGAVTLAEHSGVTSGVAALAVATVPLFTLLCGYFWGARNTRLEWAGIVLGMIGIGMLNLGSNLQSSPMGAALLLFAAAAWAFGSVWSKHLPLPQGAMASAAEMLVGGVVLMIGSALSGEHLDTLPPMEGWLALAYLAGFGSIIAFNAYMYLLKHVRPAAATSYAYVNPAVAVLLGIVFVGETIGIEEAMAMLVIISAVVLIGLPQWRKPKAAAQEEAA,failed
16,MALVLVKYGTDHPVEKLKIRSAKAEDKIVLIQNGVFWALEELETPAKVYAIKDDFLARGYSEEDSKVPLITYSEFIDLLEGEEKFIG,not failed
17,MTKLGYVMTKSSAKNFKIYINGSAKGFKNIIISGAKAWNPSPYLNTVSIGNDVRPNYTVSSSGTNKGSVLAVCNTTYYKSNKLISKNEITLYKGFRSLSTNHKIETIVHEFGHGFGLGHVKTKNAIMLDKGFINKTKPQTDDFNGIKALYKLEHHHHHH,not failed
18,MGNCCGTAGSLAQNDNKPKKGRKKQNPFSIDYGLHHGGGDGGGRPLKLIVLNDPTGREIESKYTLGRELGRGEFGVTYLCTDKETDDVFACKSILKKKLRTAVDIEDVRREVEIMRHMPEHPNVVTLKETYEDEHAVHLVMELCEGGELFDRIVARGHYTERAAAAVTKTIMEVVQVCHKHGVMHRDLKPENFLFGNKKETAPLKAIDFGLSVFFKPGERFNEIVGSPYYMAPEVLKRNYGPEVDIWSAGVILYILLCGVPPFWAETEQGVAQAIIRSVLDFRRDPWPKVSENAKDLIRKMLDPDQKRRLTAQQVLDHPWLQNAKTAPNVSLGETVRARLKQFTVMNKLKKRALRVIAEHLSDEEASGIREGFQIMDTSQRGKINIDELKIGLQKLGHAIPQDDLQILMDAGDIDRDGYLDCDEFIAISVHLRKMGNDEHLKKAFAFFDQNNNGYIEIEELREALSDELGTSEEVVDAIIRDVDTDKDGRISYEEFVTMMKTGTDWRKASRQYSRERFNSISLKLMQDASLQSCVFDILANERAEYGDQERKTVLAFGCV,failed
19,MNNLSWSDIKRSTFNAIKKGDLKLLANMIDKYPKVIDAYNSSGYSLLHVAAEQDNVEVLEYLYNNKIDVNITRKNDDGCVTPIHGAVDKNLIGNVEWLIAHGAKIDTGNGIHATPLIGAAFNGNLEMVKLLLKNGADINAFYDIGEGINKTRITPLIAAEMEGHTETCEYLCKNGARKLDAKKYELTQIKNQHDEILQYLQRYFGNVNKTLSEVIPASNVSVNLNIMRNTENDKFITIVTTGMSDCPMDDSDEAFEERFAELIIKLPKDWLIDKNNIKDVNNYWPLGWIRRIAHIPHLYDGWIGKDIIIPNGEPPQPFAPNTKLSCIMICQPDEKELHRFTTSKGNIINLYTLIPIYKEERNMALIKGCKYLRKRMEDRGIDEILNITRENVGLSADEQ,failed
20,MLKFLKNWTLPIAMLVGAVGYPVFISFSFLTPILIFTMLLLTFCKVSPRDLKPKPLHLWLLLIQIFGSLIVYLLLYRFNKIVAEGAMVCVICPTATAAAVITSKLGGSAASLTTYTLIANIGAAIAVPILFPLIEANPGISFIDAFLVILSKVFPLLICPFLAAWFLQRFIPKVHKVLLGYHELAFYLWGISLAIVTAQTLYSLINDPADGLTEIMIAVVALIACCLQFFLGKTLGSIYNDRISGGQALGQKNTILAIWMAHTYLNPLSAVGPGSYVLWQNIINSWQLWKKRKKESEKCSNNVSG,failed
21,ILGWVEFTRLEPWGIKTPARIDTGANTSSMSARDINVFKRNGKTWVRFTFDFKKGTAERSIEIERPLVRMVKIKQHDGPSQERPVISMEICLADEIREAEFDLIDRRALNYPVLLGRKALAGYVVVDPARAYLTKAVCGHTKKKKKGSEPADPGQQHE,failed
22,MKSRTRWLTSEELVTLFEAMRQAPGFSVENGLSIKLLLLLAVRKGELIGARWSEFDLDKAVWYLPAERTKTESAIDIPLPPIAVEWLRELQRLAGVSKWVLPARKMQDRMIPHIAESTLSVALAKIKHGLEPFTIHDLRRTARTHFEALGVAPHIAERCLNHKIKGIEGIYNRHDYFEERKAALEAWAGLLLQIERGEADKVVPIRRAVATKQLEHHHHHH,failed
23,VTEEEIHAMLEEGSVAGIIEQQEHEMVRNVFRLDDRQLGSLMVPRADIIYLDTALPLEENMKRVVESEHSRFPVCHNGLQSLLGVVNAKQLLAQTIKGGVTNLAEHLQPCVYVPETLTGMELLDHFRTSGTQMVFVVDEYGEIQGLVTLQDMLEAVTGEFA,not failed
